# Results: patent publication US20110293620A1
# Columns and labels:
# [1] = target: recombinant PR1/HLA-A*0201 monomer (human); test: SPR (BIAcore 3000), BB7.2 captured on an anti-mouse antibody surface, PR1/HLA-A2 monomer (HLA-A2/beta2m/peptide) as analyte in a concentration series, 25 C, first-order kinetic fit; the box below the panel and the text round it to 162 nM
# [2] = target: recombinant PR1/HLA-A*0201 monomer (human); test: SPR, Biacore; antibody captured on anti-mouse antibody surface, peptide/HLA-A2 as analyte
substance,measurement,setting,value
BB7.2 murine monoclonal antibody (HLA-A*0201 allele-specific mouse IgG2a),Kd,[1],162 nM
same,Kd,[2],162 nM
